Test results from PMC11229311, “Structural and functional investigation of the DHH/DHHA1 family proteins in Deinococcus radiodurans” (Nucleic Acids Research, 2024).

Biological target: the molecule itself
Experiment: SEC; analytical gel filtration, Superdex 75 10/300 GL, 20 mM Tris pH 8.0, 100 mM NaCl, 1 mM TCEP; 300 ul of 1 mM protein loaded; calibrated with protein standards (6.5-75 kDa)

B1: Deinococcus radiodurans RecJ-like (DrRecJ-like), wild type (enzyme, UniProt Q9RW43 1-338, looked up)
chain: MTAENSATPDYRRNVGAVADALLAHPGPIVVLSHENPDGDALGSVLGLSRALRTLGKTVLAPMTVPHYLSFLPQPGELTAPLESWPQGALAAVLDVDNNDPVRVAGADLTQFDGPVVNVDHHGTNLRRADAGVVDPSKPAAAMMVADVIDALGAPWSEAVATPLMLGLNTDTGNFAFDSVSAETFECAARLRAHGARIGWLNDQMRQNPQSYYLLLREVLGKLEFLHGGRVVQTRVDEEMLARAGATWEQVENYVSMLRNAEGAQLAVMAKDYGDRVKFSLRSRGPVSAQNIAVALGGGGHVPAAGATVISSYAEARARLDAAIEAELARVDAQATAE
notes: RecJ-like protein (DR_0826) of Deinococcus radiodurans, full-length gene, residues 1-338, amplified from genomic DNA; DHH and DHHA1 domains; Tag-free after TEV cleavage of the His-MBP-TEV fusion (vector pET28-HMT); also called DrRecJ-like^wt; DrNrnA; source: E. coli Rossetta (DE3), purified (His-tag column, HiTrap Q, TEV tag removal, Superdex 75); not shown: His6, N-terminal, cleaved; MBP, …
With B1 the “stoichiometry N” value was 2.
